Here are results for 4 molecules from patent US20260049151A1 (SHENGHE CHINA BIOPHARMACEUTICAL, published 2026).

Like-named read-outs stand apart in the source and are kept apart here.

Assay [1] concerns the target T1, Human-TNFR2-His (human, UniProt P20333 23-257).
T1 construct: Bought protein; also called human TNFR2 protein; TNFR2 protein; not shown: His tag
T1 sequence (looked up): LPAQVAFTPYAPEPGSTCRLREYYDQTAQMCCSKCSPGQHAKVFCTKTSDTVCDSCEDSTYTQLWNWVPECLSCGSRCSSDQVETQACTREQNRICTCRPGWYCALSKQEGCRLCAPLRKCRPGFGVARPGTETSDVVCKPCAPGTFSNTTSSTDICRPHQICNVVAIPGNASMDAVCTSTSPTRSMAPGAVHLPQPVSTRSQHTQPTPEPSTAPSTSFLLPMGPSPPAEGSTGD
Nature of the assay: ELISA: Human-TNFR2-His coated (0.1 ug/mL), antibody titrated, goat anti-human IgG Fc detection (Example 2). The procedure:
(§1) Human-TNFR2-His (manufacturer: SINO, CAT: 10417-H08H, LOT: LC15NO0412) was diluted to 0.1 μg/mL with a coating solution (1×PBS, pH7.4), and coated in 96-well ELISA plate at 100 µL/well overnight at 4° C. The coating solution was poured off. Each well was washed with 1×PBST at 300 μL, washed 4 times with a plate washer, and patted dry on a flat paper. It was blocked with 3% skim milk powder at 300 μL/well, and incubated at 37° C. for 1 h. The blocking solution was poured off, washed 4 times with a plate washer, and patted dry on a flat paper. Negative control and positive control were set up. […] The positive control and antibody were diluted to 10 μg/mL with 3% skim milk powder as the starting concentration, and then diluted by 3-fold gradient (11 gradients in total), and a blank well was set up and only the diluent was added. It was incubated at 37° C. for 1 h at 100 μL/well. The liquid in the well was discarded, washed 4 times with a plate washer, and patted dry on a flat paper. Goat anti-human IgG Fc was diluted with 3% skim milk powder at 1:10000, and incubated at 37° C. for 1 h at 100 μL/well. It was washed 6 times with a plate washer, and patted dry on a flat paper. TMB color developing solution was added at 100 μL/well, and wrapped with aluminum foil. Color development was performed at 37° C. in the dark for 8 min. Termination solution 1M HCl was added to terminate the color development reaction at 100 μL/well. Readings were taken at 450 nm on an ELISA reader.
(In general: ELISA stands for enzyme-linked immunosorbent assay.)

Assay [2] addresses T2, Human 4-1BB His (human, UniProt Q07011 24-186).
T2 construct: Bought protein; lots 198-2146F1-W6 and 2407c-214FF1-YC; also called human 4-1BB protein; 4-1BB protein; not shown: His tag
Nature of the assay: ELISA: Human 4-1BB His coated (0.2 ug/mL), antibody titrated, goat anti-human IgG Fc detection (Example 3). The procedure:
(§2) Human 4-1BB His (manufacturer: Acro, CAT: 41B-H5258, LOT: 198-2146F1-W6) was diluted to 0.2 μg/mL with a coating solution (1×PBS, pH7.4), and coated in 96-well ELISA plate at 100 μL/well overnight at 4° C. The coating solution was poured off. Each well was washed with 1×PBST at 300 μL, washed 4 times with a plate washer, and patted dry on a flat paper. It was blocked with 3% skim milk powder at 300 μL/well, and incubated at 37° C. for 1 h. The blocking solution was poured off, washed 4 times with a plate washer, and patted dry on a flat paper. Negative control and positive control were set up. […] The variable region of the antibody sequence of the positive control consists of SEQ ID NO: 15 and SEQ ID NO: 19, with the addition of the constant region of human IgG1 (SEQ ID NO: 46 and SEQ ID NO: 47). The positive control and antibody were diluted to 10 μg/mL with 3% skim milk powder as the starting concentration, and then diluted by 3-fold gradient (11 gradients in total), and a blank well was set up and only the diluent was added. It was incubated at 37° C. for 1 h at 100 μL/well. The liquid in the well was discarded, washed 4 times with a plate washer, and patted dry on a flat paper. Goat anti-human IgG Fc was diluted with 3% skim milk powder at 1:20000, and incubated at 37° C. for 1 h at 100 μL/well. It was washed 6 times with a plate washer, and patted dry on a flat paper. TMB color developing solution was added at 100 μL/well, and wrapped with aluminum foil. Color development was performed at 37° C. in the dark for 8 min. Termination solution 1M HCl was added to terminate the color development reaction at 100 μL/well. Readings were taken at 450 nm on an ELISA reader.

In the next assay the target is T3, Human 4-1BB Fc (human, UniProt Q07011 24-186).
T3 construct: same catalogue and lot number as Human 4-1BB His; not shown: Fc
T3 sequence (Q07011 24-186 limits assumed): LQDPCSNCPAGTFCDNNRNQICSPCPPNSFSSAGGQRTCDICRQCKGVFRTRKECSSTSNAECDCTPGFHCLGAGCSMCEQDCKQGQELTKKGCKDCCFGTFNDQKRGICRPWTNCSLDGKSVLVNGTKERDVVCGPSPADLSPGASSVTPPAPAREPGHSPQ
Nature of the assay: bridging ELISA: Human 4-1BB Fc coated (0.3 ug/mL), antibody titrated, then Human-TNFR2-His (0.3 ug/mL), HRP anti-His detection (Example 4). Here is the method: Human 4-1BB Fc (manufacturer: Acro, CAT: 41B-H5258, LOT: 198-2146F1-W6) was diluted to 0.3 μg/mL with a coating solution (1×PBS, pH7.4) and coated into a 96-well ELISA plate at 100 µL/well at 4° C. overnight. The coating solution was poured off. Each well was washed with 1×PBST at 300 μL, washed 4 times with a plate washer, and patted dry on a flat sheet. It was blocked with 3% skim milk powder at 300 μL/well, and incubated at 37° C. for 1 h. The blocking solution was poured off, washed 4 times with a plate washer, and patted dry on a flat sheet. […] Starting at 50 nM, which was used as the initial concentration for 3-fold dilution, a total of 10 gradients were diluted, and a blank well was set up and only the diluent was added. It was incubated at 37° C. for 1 h at 100 μL/well. The liquid in the well was discarded, washed 4 times with a plate washer, and patted dry on a flat paper. Human-TNFR2-His (manufacturer: Sino, CAT: 10417-H08H, LOT: LC15NO0412) was diluted to 0.3 μg/mL, 100 μL was added to each well, and incubated at room temperature for 1 h. The plate was washed 3 times with PBST, and then the HRP-labeled his antibody was diluted with sample diluent at 1:5000, 100 μ L was added to each well, and incubated at room temperature for 1 h. It was washed 6 times with a plate washer, and patted dry on a flat paper. TMB color developing solution was added at 100 μL/well, and wrapped with aluminum foil. Color development was performed at 37° C. in the dark for 8 min. Termination solution 1M HCl was added to terminate the color development reaction at 100 μL/well. Readings were taken at 450 nm on an ELISA reader.

A further assay concerns the target T4, Human TNFR2 mFc (human, UniProt P20333 23-257).
T4 construct: Bought protein; not shown: mFc
T4 sequence (looked up): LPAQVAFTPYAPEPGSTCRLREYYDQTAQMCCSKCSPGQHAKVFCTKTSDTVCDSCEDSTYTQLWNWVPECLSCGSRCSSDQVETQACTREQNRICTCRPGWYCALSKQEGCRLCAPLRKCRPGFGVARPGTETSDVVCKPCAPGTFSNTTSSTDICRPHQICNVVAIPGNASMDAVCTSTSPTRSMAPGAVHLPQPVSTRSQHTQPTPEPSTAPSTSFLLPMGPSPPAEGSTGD
Nature of the assay: bridging ELISA: Human TNFR2 mFc coated (0.3 ug/mL), antibody titrated, then Human 4-1BB His (0.3 ug/mL), HRP anti-His detection (Example 5). The procedure: Human TNFR2 mFc (manufacturer: Kaixia, CAT: TN-HM3R2, LOT: 031202) was diluted to 0.3 μg/mL with a coating solution (1×PBS, pH7.4) and coated into a 96-well ELISA plate at 100 μL/well at 4° C. overnight. The coating solution was poured off. Each well was washed with 1×PBST at 300 μL, washed 4 times with a plate washer, and patted dry on a flat paper. It was blocked with 3% skim milk powder at 300 μL/well, and incubated at 37° C. for 1 h. The blocking solution was poured off, washed 4 times with a plate washer, and patted dry on a flat paper. […] Starting at 50 nM, which was used as the initial concentration for 3-fold dilution, a total of 10 gradients were diluted, and a blank well was set up and only the diluent was added. It was incubated at 37° C. for 1 h at 100 µL/well. The liquid in the well was discarded, washed 4 times with a plate washer, and patted dry on a flat paper. Human 4-1BB His (manufacturer: Acro, CAT: 41B-H5258, LOT: 198-2146F1-W6) was diluted to 0.3 μg/mL, 100 μL was added to each well, and incubated at room temperature for 1 h. The plate was washed 3 times with PBST, and then the HRP-labeled his antibody was diluted with sample diluent at 1:5000, 100 μ L was added to each well, and incubated at room temperature for 1 h. It was washed 6 times with a plate washer, and patted dry on a flat paper. TMB color developing solution was added at 100 μL/well, and wrapped with aluminum foil. Color development was performed at 37° C. in the dark for 8 min. Termination solution 1M HCl was added to terminate the color development reaction at 100 μL/well. Readings were taken at 450 nm on an ELISA reader.

The target in assay [3] is T1, Human-TNFR2-His. Nature of the assay: ELISA: Human-TNFR2-His coated (0.1 ug/mL), antibody titrated, goat anti-human IgG Fc detection (Example 2). The procedure: as §1
This is another data set of the same source.

Assay [4] has as its target T2, Human 4-1BB His. Put plainly: ELISA: Human 4-1BB His coated (0.2 ug/mL), antibody titrated, goat anti-human IgG Fc detection (Example 3). Here is the method: as §2
This is another data set of the same source.

Assay [5] has as its target T1, Human-TNFR2-His. Put plainly: BLI, antibody on AHC sensor, 100 nM TNFR2-His in solution. Here is the method:
The AHC sensor was soaked in 0.02% PBST (0.02% Tween 20, pH 7.4, 1×PBS) as a buffer for 600 s to remove the sucrose covering the sensor surface. The AHC sensor was equilibrated with 0.02% PBST (0.02% Tween 20, pH 7.4, 1×PBS) as a buffer for 60 s, the antibody in the sample plate was solidified for 300 s, and the secondary equilibration buffer was used for 180 s. 100 nM human-TNFR2-His (manufacturer: SINO, CAT: 10417-H08H, LOT: LC15NO0412) protein was bound to the antibody for 300 s and then dissociated for 600 s. After dissociation, 10 mM glycine (pH 2.0) was used as a regeneration buffer for 30 s. The sensor was regenerated with 10 mM glycine (pH 2.0).
(In general: Biolayer interferometry detects binding as a change in optical thickness at a sensor tip.)

Assay [6] has as its target T1, Human-TNFR2-His. Put plainly: ELISA: Human-TNFR2-His coated (0.1 ug/mL), antibody titrated, goat anti-human IgG Fc detection (Example 2). Here is the method: as §1
This is another data set of the same source.

Assay [7] has as its target T1, Human-TNFR2-His. The description is as above. The procedure: as §1
This is another data set of the same source.

Assay [8] concerns the target T1, Human-TNFR2-His. The description is as above. Here is the method: as §1
The source holds these as a separate data set.

T2 sequence (Q07011 24-186 limits assumed): as the sequence (Q07011 24-186 limits assumed) above

B1: Antibody A (bispecific antibody, human IgG1, kappa)
light: DIQMTQSPSSLSASLGDRVTISCSASQGISNYLNWYQQKPDGTVKLLIYYTSTLHSGVPSRFSGSGSGTDYTLTISSLQPEDIATYYCQQYSKLPWTFGGGTKLEIKRTVAAPSVFIFPPSDEQLKSGTASVVCLLNNFYPREAKVQWKVDNALQSGNSQESVTEQDSKDSTYSLSSTLTLSKADYEKHKVYACEVTHQGLSSPVTKSFNRGEC
heavy: not shown
notes: IgG1 subtype; full-length 4-1BB antibody with TNFR2 scFv at the C-terminus of the heavy chains; two identical first and two identical second peptide chains
For orientation: EC50 (read off the curve) means the concentration needed to bring the measured effect to its halfway point. Low readings indicate greater potency, high ones weaker potency. For the molecule B1, the “EC50 (read off the curve)” value was roughly 0.4 nM with Human-TNFR2-His [1], roughly 0.2 nM with Human 4-1BB His [2], roughly 0.5 nM with Human 4-1BB Fc and roughly 0.2 nM in the assay with Human TNFR2 mFc.

B2: Antibody M2 (bispecific antibody, human IgG4 S228P, kappa)
light: DIQMTQSPSSLSASLGDRVTISCSASQGISNYLNWYQQKPDGTVKLLIYYTSTLHSGVPSRFSGSGSGTDYTLTISSLQPEDIATYYCQQYSKLPWTFGGGTKLEIKRTVAAPSVFIFPPSDEQLKSGTASVVCLLNNFYPREAKVQWKVDNALQSGNSQESVTEQDSKDSTYSLSSTLTLSKADYEKHKVYACEVTHQGLSSPVTKSFNRGEC
heavy: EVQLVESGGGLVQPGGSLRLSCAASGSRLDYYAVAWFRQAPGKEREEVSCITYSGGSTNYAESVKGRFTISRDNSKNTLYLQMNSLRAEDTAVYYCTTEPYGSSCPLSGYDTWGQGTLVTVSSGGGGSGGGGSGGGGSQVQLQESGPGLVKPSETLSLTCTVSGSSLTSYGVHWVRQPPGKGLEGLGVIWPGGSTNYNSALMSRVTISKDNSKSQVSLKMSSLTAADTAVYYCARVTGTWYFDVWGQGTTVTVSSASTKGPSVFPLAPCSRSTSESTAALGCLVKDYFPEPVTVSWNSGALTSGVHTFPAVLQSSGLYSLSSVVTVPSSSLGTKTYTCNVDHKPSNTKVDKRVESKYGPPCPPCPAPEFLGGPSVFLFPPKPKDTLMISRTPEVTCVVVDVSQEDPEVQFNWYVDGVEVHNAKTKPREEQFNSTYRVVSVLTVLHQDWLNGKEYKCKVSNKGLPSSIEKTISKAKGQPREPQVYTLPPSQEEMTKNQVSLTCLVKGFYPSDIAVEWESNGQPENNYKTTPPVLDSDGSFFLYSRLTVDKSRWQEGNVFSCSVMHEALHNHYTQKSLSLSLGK
notes: IgG4 subtype; same order as M1
Consider B2, for which, in the assay with Human-TNFR2-His [3], the “EC50 (read off the curve)” value was roughly 0.1 nM.

B3: Antibody J2 (bispecific antibody, human IgG4 S228P, kappa)
light: DIQMTQSPSSLSASLGDRVTISCSASQGISNYLNWYQQKPDGTVKLLIYYTSTLHSGVPSRFSGSGSGTDYTLTISSLQPEDIATYYCQQYSKLPWTFGGGTKLEIKRTVAAPSVFIFPPSDEQLKSGTASVVCLLNNFYPREAKVQWKVDNALQSGNSQESVTEQDSKDSTYSLSSTLTLSKADYEKHKVYACEVTHQGLSSPVTKSFNRGEC
heavy: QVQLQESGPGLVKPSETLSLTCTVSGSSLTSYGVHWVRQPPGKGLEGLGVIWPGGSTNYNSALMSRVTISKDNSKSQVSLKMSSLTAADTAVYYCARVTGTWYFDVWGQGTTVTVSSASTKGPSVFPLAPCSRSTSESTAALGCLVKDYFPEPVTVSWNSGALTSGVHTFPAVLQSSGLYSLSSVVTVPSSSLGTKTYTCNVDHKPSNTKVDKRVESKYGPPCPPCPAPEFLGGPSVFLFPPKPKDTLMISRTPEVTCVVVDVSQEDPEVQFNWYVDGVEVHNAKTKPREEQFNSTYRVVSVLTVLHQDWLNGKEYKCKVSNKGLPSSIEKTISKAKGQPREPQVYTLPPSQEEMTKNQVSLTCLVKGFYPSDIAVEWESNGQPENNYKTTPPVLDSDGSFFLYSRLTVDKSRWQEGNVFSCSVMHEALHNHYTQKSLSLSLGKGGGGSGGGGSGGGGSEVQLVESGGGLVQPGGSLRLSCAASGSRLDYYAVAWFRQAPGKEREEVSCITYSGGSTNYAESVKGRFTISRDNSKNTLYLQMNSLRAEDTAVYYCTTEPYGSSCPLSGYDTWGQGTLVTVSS
notes: IgG4 subtype; same order as J1
B3: the “EC50 (read off the curve)” value with Human-TNFR2-His [3] and with Human 4-1BB His [4] was roughly 0.2 nM each time.

B4: Positive control 1 (anti-TNFR2 antibody, human IgG1) (antibody, V domains shown)
VH: EVQLVQSGAEVKKPGATVKISCKVSGYSITDYLLHWVQQAPGKGLEWMGWIDPEDAKTKYGQKFQSRVTITADTSTDTAYMELSSLRSEDTAVYYCAANSGTGTMDAWGQGTLVTVSS
VL: DIVMTQSPATLSVSPGERATLSCKASQNVGSNVDWYQQKPGQSPRVLIYKASIRYTGIPARFSGSGSGTEFTLTISILQSEDFAVYFCMQSKSYPITFGQGTKLEIK
The term Kd denotes the constant that tells how readily two partners part at equilibrium. As a reminder, the koff is the first-order rate constant of dissociation. Low values mean slow dissociation, high ones fast dissociation. As a reminder, the kon is a measure of how fast the partners come together. The low end stands for slow association, the high end for fast association. The molecule B4 had a Kd in the assay with Human-TNFR2-His [5] of 0.0724 nM. Also, in the assay with Human-TNFR2-His [5], the dissociation rate constant (koff) turned out to be 1.86e-05 s⁻¹. The kon in the assay with Human-TNFR2-His [5] was 257000 M⁻¹ s⁻¹. Also, the concentration for a half-maximal effect (EC50 (read off the curve)) in the assay with Human-TNFR2-His [1], with Human-TNFR2-His [6], in the assay with Human-TNFR2-His [7] and with Human-TNFR2-His [8] was roughly 0.03 nM throughout.
